Results reported in patent US20260028402A1 (SANYOU BIOPHARMACEUTICALS, published 2026).

What was measured:
mouse PD-L1 on cells = molecular target: T1, mouse PD-L1 on cells (mouse, UniProt Q9EP73 19-290); test: flow cytometry on mouse PD-L1-CHO cells
T1 construct: whole, on cells; also called mouse PD-L1-CHO cells
Experimental: The cells were resuspended with the prepared FACS buffer and counted, and the cell suspension density was adjusted to 2×10⁶ cells/mL. 100 μL of mouse PD-L1-CHO cells and cynomolgus monkey PD-L1-CHO cells were added per well to the 96-well plates, respectively. The plates were centrifuged at 300 g to remove the supernatant. […] The incubated cell mixture was centrifuged at 300 g to remove the supernatant, 200 μL of FACS buffer was added to corresponding wells, and the cells were resuspended with a multichannel pipette. The centrifugation, resuspension and washing steps were repeated twice, and the cells were centrifuged at 300 g to remove the supernatant. The PE-labeled anti-human IgG Fc flow antibody (Abcam, ab98596) was added, and the cells were pipetted to mix with a multichannel pipette and incubated at 4° C. for 30 minutes. The cells were centrifuged at 300 g to remove the supernatant, and FACS buffer was added to resuspend the cells. The centrifugation, resuspension and washing steps were repeated twice, and 200 μL of FACS buffer was added per well to resuspend the cells.

human PD-L1 on cells = molecular target: T2, human PD-L1 on cells (human, UniProt Q9NZQ7 19-290); test: flow cytometry on HCC827 cells
T2 construct: whole, on cells; Overexpressed on CHO cells or present on HCC827 tumor cells; the cell is named under assay; also called human PD-L1-CHO cells; PD-L1 protein on HCC827 cells
T2 sequence (Q9NZQ7 19-290): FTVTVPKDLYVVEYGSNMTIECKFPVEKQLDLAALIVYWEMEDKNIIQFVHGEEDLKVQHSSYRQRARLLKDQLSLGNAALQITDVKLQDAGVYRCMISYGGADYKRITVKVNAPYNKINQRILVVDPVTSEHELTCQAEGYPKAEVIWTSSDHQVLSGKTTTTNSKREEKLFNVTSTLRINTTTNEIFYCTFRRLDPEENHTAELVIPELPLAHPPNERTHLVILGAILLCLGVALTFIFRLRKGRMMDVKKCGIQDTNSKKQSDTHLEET
Experimental: The cells were resuspended in the prepared FACS buffer and counted, and the cell suspension density was adjusted to 2×10⁶ cells/mL. 100 μL of HCC827 cells were added per well to 96-well plates. The plates were centrifuged at 300 g to remove the supernatant. […] The incubated cell mixture was centrifuged at 300 g to remove the supernatant, 200 μL of FACS buffer was added to corresponding wells, and the cells were resuspended with a multichannel pipette. The centrifugation, resuspension and washing steps were repeated twice, and the cells were centrifuged at 300 g to remove the supernatant. […] The incubated cell mixture was centrifuged at 300 g to remove the supernatant, 200 μL of FACS buffer was added to corresponding wells, and the cells were resuspended with a multichannel pipette. The centrifugation, resuspension and washing steps were repeated twice, and the cells were centrifuged at 300 g to remove the supernatant. The PE-labeled anti-biotin flow antibody (Abcam) was added, and the cells were pipetted to mix with a multichannel pipette and incubated at 4° C. for 30 minutes. The cells were centrifuged at 300 g to remove the supernatant, and FACS buffer was added to resuspend the cells. The centrifugation, resuspension and washing steps were repeated twice, and 200 μL of FACS buffer was added per well to resuspend the cells.

[1] = molecular target: T3, B7-H4 protein (Sino Biological, 10738-H08H) (UniProt Q7Z7D3 25-258); test: ELISA, protein coated at 2 ug/mL; legend: N/A: No binding activity detected
T3 construct: Bought protein
T3 sequence (looked up): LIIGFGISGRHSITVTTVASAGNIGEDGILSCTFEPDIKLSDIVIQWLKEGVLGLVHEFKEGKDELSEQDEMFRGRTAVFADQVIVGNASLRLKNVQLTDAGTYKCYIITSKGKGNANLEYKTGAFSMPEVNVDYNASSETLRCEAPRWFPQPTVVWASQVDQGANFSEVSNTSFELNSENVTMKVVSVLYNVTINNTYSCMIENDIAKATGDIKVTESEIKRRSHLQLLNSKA
Experimental: (§1) The specific procedures were as follows:
(§2) One day before the experiment, 30 μL of protein dilutions with a final concentration of 2 μg/mL (B7-H1 (i.e., PD-L1), B7-H2, B7-H3, B7-H4, and B7-DC (all proteins were purchased from Sino Biological Inc., catalog numbers 10084-HNAH, 11559-H08H, 11188-H08H, 10738-H08H, and 10292-H08H-B, respectively)) were added to the ELISA plates and the plates were incubated overnight at 4° C. The next day, the ELISA plate was rinsed three times with PBST, then blocked with 150 μL of PBS containing 5% skim milk powder at room temperature for 2 hours. […] The plates were washed three times with PBST, and 30 μL of 1:7000 diluted anti-human IgG Fc-HRP secondary antibody was added per well, followed by incubation at room temperature for 30 minutes. After washing the plate six times with PBST, TMB was added for color development, and the reaction was terminated by adding 2M HCl. The absorbance was read at a wavelength of 450 nm using a microplate reader (Molecular Devices, SpecterMax 190).

[2] = molecular target: T4, B7-H2 protein (Sino Biological, 11559-H08H) (UniProt O75144 19-258); test: as above
T4 construct: Bought protein
T4 sequence (looked up): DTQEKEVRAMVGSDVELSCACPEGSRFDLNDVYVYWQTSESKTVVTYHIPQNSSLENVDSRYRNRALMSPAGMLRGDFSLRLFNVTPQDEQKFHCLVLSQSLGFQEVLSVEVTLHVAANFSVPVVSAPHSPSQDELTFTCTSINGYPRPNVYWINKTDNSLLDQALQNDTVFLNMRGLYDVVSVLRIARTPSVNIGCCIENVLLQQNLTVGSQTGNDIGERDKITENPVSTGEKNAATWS
Experimental: as §1, §2

[3] = molecular target: T5, B7-DC protein (Sino Biological, 10292-H08H-B) (UniProt Q9BQ51 20-220); test: as above
T5 construct: Bought protein
T5 sequence (looked up): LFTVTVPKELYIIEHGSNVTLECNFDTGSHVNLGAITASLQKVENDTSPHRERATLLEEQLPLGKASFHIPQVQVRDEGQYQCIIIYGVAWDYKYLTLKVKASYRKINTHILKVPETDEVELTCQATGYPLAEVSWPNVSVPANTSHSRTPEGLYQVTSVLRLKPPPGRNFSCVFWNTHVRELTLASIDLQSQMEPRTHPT
Experimental: as §1, §2

[4] = molecular target: T6, B7-H3 protein (Sino Biological, 11188-H08H) (UniProt Q5ZPR3 29-461); test: as above
T6 construct: Bought protein
T6 sequence (looked up): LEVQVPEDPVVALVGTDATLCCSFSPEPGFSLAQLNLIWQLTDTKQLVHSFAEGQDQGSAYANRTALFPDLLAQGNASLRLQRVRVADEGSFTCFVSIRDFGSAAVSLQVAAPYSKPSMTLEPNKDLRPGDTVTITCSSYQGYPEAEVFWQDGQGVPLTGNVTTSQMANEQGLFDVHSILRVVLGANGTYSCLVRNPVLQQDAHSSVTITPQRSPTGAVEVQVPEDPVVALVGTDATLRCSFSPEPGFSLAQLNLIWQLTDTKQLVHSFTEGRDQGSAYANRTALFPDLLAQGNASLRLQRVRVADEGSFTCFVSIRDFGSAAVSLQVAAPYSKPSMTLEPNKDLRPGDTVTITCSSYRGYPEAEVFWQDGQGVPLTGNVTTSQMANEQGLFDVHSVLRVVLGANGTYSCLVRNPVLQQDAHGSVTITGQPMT
Experimental: as §1, §2

T1 sequence (Q9EP73 19-290): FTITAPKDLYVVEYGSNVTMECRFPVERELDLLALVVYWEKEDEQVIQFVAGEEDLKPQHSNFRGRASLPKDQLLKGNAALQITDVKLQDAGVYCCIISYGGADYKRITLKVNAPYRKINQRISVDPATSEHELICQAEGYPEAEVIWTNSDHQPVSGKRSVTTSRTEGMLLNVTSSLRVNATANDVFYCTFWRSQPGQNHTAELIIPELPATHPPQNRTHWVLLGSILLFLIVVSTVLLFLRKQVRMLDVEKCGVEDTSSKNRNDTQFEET

binding result (mouse PD-L1 on cells): binds | binding result (human PD-L1 on cells): binds | binding result [1]: no binding | binding result [2]: no binding | binding result [3]: no binding | binding result [4]: no binding
B1: m18 (antibody, human IgG1, V domains shown)
VH: EVQLVESGGGLVQPGGSLRLSCAASRTDSNIHGMHWYRQAPGKGREWVGMIFIDGNTIVTDSVKGRFTISRDNAKNTLYLQMNTLRAEDTAVYYCAADSRGYGRAWGQGTTVTVSS
notes: also called antibody m18; anti-PD-L1 antibody m18
